Results as given in article PMC5929487.
Values joined by “and” are separate entries in the source; they are usually repeats but may differ in a detail not shown here. Equal entries are not always repeated.

Key:
[1] = target: epidermal growth factor receptor (rat lung) (rat (endogenous in lung tissue)); assay: SDS-PAGE and Western blot of SDS-resistant dimer
[2] = target: epidermal growth factor receptor (ovine pulmonary artery smooth muscle cells) (ovine (endogenous in PASMC)); assay: SDS-PAGE and Western blot of SDS-resistant dimer
[3] = target: recombinant human catalase (human) (UniProt P04040); assay: native gel or EMSA
[4] = target: recombinant human catalase (human) (UniProt P04040); assay: SEC

epidermal growth factor receptor (rat lung)
stoichiometry N [1]: 2

epidermal growth factor receptor (ovine pulmonary artery smooth muscle cells)
stoichiometry N [2]: 2

recombinant human catalase (from UniProt P04040 1-527) (enzyme)
stoichiometry N [3]: 4 | stoichiometry N [4]: 4 and 3 and 2
